Experiment [1] has as its target T1, monovalent hVISTA-ECD (amino acids 32-193 of SEQ ID NO: 1 with a 7xHis tail) (human, UniProt Q9H7M9 33-193).
T1 construct: analyte of the SPR assays; also called huVISTA-His; human VISTA-ECD
The experiment is described as follows: SPR 37C, pH 6.0 over pH 6.0.

Experiment [2] has as its target T1, monovalent hVISTA-ECD (amino acids …). Kind of experiment: SPR, Ab on Protein A, hVISTA 100-7.8 nM, pH 7.4. The procedure: Further binding kinetic experiments were performed at various pHs on VISTA antibodies described herein by SPR as generally described in Example 9 above. Antibodies were normalized to 50 nM concentration in PBST pH 7.4 and captured on a Protein A CM5 chip (ID 4931) by injecting for 45 seconds at a 5 µL/min flow rate. An 8-point human VISTA titration ([…]) was prepared in PBST at pH 7.4, 6.9, 6.45, and 6.0. Titrations were injected over the captured antibodies for 180 seconds at 30 µL/min. Sensorgrams were fit to a 1:1 binding model in T200 evaluation software and the kinetic constants were reported.

Experiment [3] shares this target. Kind of experiment: SPR 37C, Ab on Protein A, hVISTA-ECD 100-0.78 nM, pH 7.4. The procedure:
Human VISTA binding kinetics of P1-061029 (“ ‘029”), P1-068761 (“ ‘761”) and P1-068767 (“ ‘767”) (as IgG1.3 antibodies) were measured at pH values between pH 7.4 and pH 6.0, i.e., at pH 6.9 and pH 6.45 using a Biacore® T100 instrument (GE Healthcare). […] Antibodies were diluted to 25 nM in PBST pH 7.4, and were captured across active biosensor flow cells at 5 ul/min for 45 seconds. A concentration series of 100 - 0.78 nM monovalent hVISTA-ECD (SEQ ID NO: 325) was prepared pH 7.4, 6.9, 6.45 and 6.0 running buffers, and was injected over the captured antibodies at 40 ul/min to measure association and dissociation. Two 15 second injections of 10 mM glycine pH 1.5 were used to regenerate the Protein A capture surface between assay cycles. Rate constants ka (kₒₙ) and kd (koff) were derived from reference flow cell and 0 nM blank-subtracted sensorgrams, and were fit to a 1:1 binding model in Biacore® T200 Evaluation Software v.2.0. The affinity constant, KD was calculated as the ratio of rate constants koff/kₒₙ for each VISTA antibody. Ratios of koff and KD at each pH relative to pH 6.0 were calculated to evaluate how the VISTA koff and KD change as the buffer pH shifts to physiological, and are shown in Table 7. […] As the buffer pH shifts from acidic to physiological, VISTA koff and KD both weaken for ‘761 and ‘767. Physiological pH data for ‘761 and ‘767 for comparison is referenced from Table 7 and noted with an asterisk (*).

Experiment [4] shares this target. Kind of experiment: SPR 37C, Ab on Protein A, hVISTA-ECD 50-5 nM, pH 6.0, average. The essentials: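 Biacore T100 at 37C: antibodies (IgG1.3 format, 25 nM in PBST pH 7.4) captured on Protein A, then 50 - 5 nM monovalent hVISTA-ECD injected in pH 7.4 or 6.0 running buffer. Reference- and blank-subtracted sensorgrams fit to 1:1 model; KD = koff/kon.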
For experiment [5] the target is unchanged. Kind of experiment: SPR 37C, Ab on Protein A, hVISTA-ECD 50-5 nM, pH 7.4, average. The procedure:
Binding of several preparations of each of the ‘029 progeny clones and of the parent ‘029 antibodies, formatted as IgG1.3 antibodies, to human VISTA at pH 6.0 and 7.4 was measured by Surface plasmon resonance (SPR). SPR analysis was performed to measure koff and KD binding affinity measurements for VISTA Abs at acidic and neutral pHs using a Biacore® T100 instrument (GE Healthcare). […] Antibodies were diluted to 25 nM in PBST pH 7.4, and were captured across active biosensor flow cells at 5 ul/min for 60 seconds. A concentration series of 50 - 5 nM monovalent hVISTA-ECD (SEQ ID NO: 325) was prepared in pH 7.4 and 6.0 running buffers, and was injected over the captured antibodies at 40 ul/min to measure association and dissociation. Two 15 second injections of 10 mM glycine pH 1.5 were used to regenerate the Protein A capture surface between assay cycles. Rate constants ka (kₒₙ) and kd (koff) were derived from reference flow cell and 0 nM blank-subtracted sensorgrams, and were fit to a 1:1 binding model in Biacore® T200 Evaluation Software v.2.0. The affinity constant, KD was calculated as the ratio of rate constants koff/kₒₙ for each VISTA antibody.

The target is the same in experiment [6]. The experiment is described as follows: SPR 37C, pH 7.4 * over pH 6.0.
The target is the same in experiment [7]. Kind of experiment: SPR 37C, pH 7.4 *, value referenced from the 1600 nM assay (same as the 4th table r7).

Numbering of substitutions follows the chain as printed.

The results in this text go back to patent US20230192860A1 (Bristol-Myers Squibb, published 2023).

T1 sequence (Q9H7M9 other isoform, or with tags, fused parts or gaps limits assumed): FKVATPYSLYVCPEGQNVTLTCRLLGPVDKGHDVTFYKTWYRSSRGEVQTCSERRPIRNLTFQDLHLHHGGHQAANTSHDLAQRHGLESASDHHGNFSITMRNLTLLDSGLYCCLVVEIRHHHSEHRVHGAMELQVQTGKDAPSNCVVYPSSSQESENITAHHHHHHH

B1: P1-061029.IgG1.3 (antibody)
heavy: EVQLVESGGGLVQPGKSLRLSCAASGFTLDDYAMHWVRQAPGKGLEWVSGINWNSANIGYADSVKGRFTISRDNAKNSLYLQMNSLRTEDTALYYCAKVPGYSGGWIDAFDVWGQGTMVTVSSASTKGPSVFPLAPSSKSTSGGTAALGCLVKDYFPEPVTVSWNSGALTSGVHTFPAVLQSSGLYSLSSVVTVPSSSLGTQTYICNVNHKPSNTKVDKRVEPKSCDKTHTCPPCPAPEAEGAPSVFLFPPKPKDTLMISRTPEVTCVVVDVSHEDPEVKFNWYVDGVEVHNAKTKPREEQYNSTYRVVSVLTVLHQDWLNGKEYKCKVSNKALPAPIEKTISKAKGQPREPQVYTLPPSREEMTKNQVSLTCLVKGFYPSDIAVEWESNGQPENNYKTTPPVLDSDGSFFLYSKLTVDKSRWQQGNVFSCSVMHEALHNHYTQKSLSLSPG
light: not shown
notes: IgG1.3; also called P1-061029 (parent); P1-061029-18
As for B1, in experiment [1], the “KD ratio to pH 6.0” value was 1. Moreover, the “koff ratio to pH 6.0” value in experiment [1] was 1. For the same molecule, the dissociation constant (Kd) in experiment [2] worked out at 13 nM; in experiment [3], 26 nM; in experiment [4], 3.6 nM; in experiment [5], 19 nM. The koff in experiment [2] was found to be 0.00603 s⁻¹; in experiment [3], 0.0064 s⁻¹; in experiment [4], 0.0058 s⁻¹; in experiment [5], 0.0056 s⁻¹. The kon stood at 463000 M⁻¹ s⁻¹ in experiment [2], 250000 M⁻¹ s⁻¹ in experiment [3], 1.6e+06 M⁻¹ s⁻¹ in experiment [4] and 290000 M⁻¹ s⁻¹ in experiment [5].

B2: P1-068761.IgG1.3 (antibody)
heavy: B1 heavy with D30E, Y32E, A56E, N57E, G104H, F110E
light: not shown
notes: IgG1.3; also called P1-068761-20; P1-068761 hIgG1.3f
B2: in experiment [1], the “KD ratio to pH 6.0” value turned out to be 1 and the “koff ratio to pH 6.0” value was 1. In experiment [6], the “KD ratio to pH 6.0” value is about 10000 and the “koff ratio to pH 6.0” value was about 63.6. Also, in experiment [4], binding was characterised by a dissociation constant (Kd) of 3.8 nM, the koff came out at 0.0014 s⁻¹ and the kon came to 380000 M⁻¹ s⁻¹. In experiment [7], this molecule yielded a Kd of 11000 nM, a koff of 0.042 s⁻¹ and a kon of 3800 M⁻¹ s⁻¹.
